The values below come from the supplement of paper PMC12042874.

± gives the uncertainty stated by the source.

The nature of the data set: amyloid nucleation score (Sup35N fusion, yeast selection) (log enrichment); library NNK1; higher = more nucleation; inactive = no reads after selection. The gist of the method:
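DiMSum was used to calculate nucleation scores as log enrichment of output over input reads, centred on the mode score of non-aggregating sequences. Sequences with fewer than 100 input reads were not scored. Input and output came from Illumina sequencing of plasmid inserts in psi-negative yeast expressing peptides of 20 random codons fused to Sup35N, induced 24 hours with 100 μM copper sulfate and then grown 7 days at 30°C on medium lacking adenine and uracil.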
In turn, IYLSNAYSTTYSLKFSFM had an amyloid nucleation score of 6.14 ± 0.071.
Next, SFPVQQIYF: 0.971 ± 0.49; KHWSCRYWEEFGGMDHNLDW: 1.1 ± 0.38.
With AVFLMFRYASFTYWM the figure was 0.444 ± 1.2; with IYFTSTMKLRQDILADNEHC, 1.08 ± 0.54.
Next, ELGKKYSLYSLVLAST: 0.107 ± 0.67.
MSDVCNVMKKVMQGTCFCGH had an amyloid nucleation score of -0.293 ± 0.27.
With RKRSSRVIDVTGRWAVLTYP the figure was 0.074 ± 0.46; with ERYKY, 0.601 ± 0.61; with VQCFLAQRSVDSGATELIIV, 0.114 ± 0.59.
Next, IGVVVWRPNLILRKEYLWRV: -0.858 ± 2.1.
In turn, VMVFGSMPVDDLLHFWLECY displayed an amyloid nucleation score of -0.102 ± 0.42.
With SRFKPWGGSFVGYCVLYGRL the figure was -1.01 ± 0.71.
The substance INHLKGVSRYSVPVLLGFIA displayed an amyloid nucleation score of 0.124 ± 0.45.
Next, WQSFGVSGRLPYRQWSD: “inactive”.
Next, IGVSVTPLLLKNKRPVTDVM: 1.07 ± 0.84; GRNRRDVMSRSYSVVG: -0.72 ± 1.1.
For PYAAGENWWMCLQRVPVTIV, the amyloid nucleation score came to 0.027 ± 0.67.
On to VWYTRGRRHRGTTYMSNRLW, for which the amyloid nucleation score is -0.28 ± 0.31.
GITGSWINFRNCLTR: the amyloid nucleation score was found to be 0.774 ± 0.6.
Next, FSRYLPKLNSLAKDSIPVGR: “inactive”; TCRCTKLTSAYMLRVWSVQF: -0.332 ± 0.55.
In turn, IAFTVWADWYLPKLGLIREL gave an amyloid nucleation score of 0.508 ± 0.74.
YIWRNKKSAIRCDSKTVRRN displayed an amyloid nucleation score of -0.286 ± 0.35.
Turning to YFLGQMLISEGIMSVAFCVR, the amyloid nucleation score was 5.13 ± 0.073.
Next, GSALPSIWSWERFRSLLRNL: -0.221 ± 0.45; VVVGDSPNGNEEDDWSSC: -2.03 ± 2.7.
For the substance CLFLLNVGLSLLIGLPRYMW, the amyloid nucleation score worked out at 0.552 ± 0.91.
VDGSSCFGCAGCTTRRFTSG came in with an amyloid nucleation score of -0.253 ± 0.43.
On to FVTANMTKLFTLWNWRLPGK, for which the amyloid nucleation score is 0.583 ± 0.29.
With MSKYALNLAMVDRGLSKDQN, the amyloid nucleation score was -0.898 ± 1.6.
With VYTSRDGNDLEACGGYSAIV the figure was 0.705 ± 0.71.
GILFDLICIDLCFIGVLLKM displayed an amyloid nucleation score of -0.406 ± 0.44.
As to LWTLVQTASSTWALLTGTTN, the amyloid nucleation score is -0.066 ± 0.65.
Next, IFHGRNYSFSS: -0.422 ± 0.45; VSKRFRFLRTLFIEECDLRH: 0.576 ± 0.32.
With HFIFEYTSFSS the figure was 0.307 ± 0.29; with PHSMYCGETWLSLDCQMQFM, -0.009 ± 0.74.
Regarding LPRNYTLLMPAVYIYVLVSW, the amyloid nucleation score entry is “inactive”.
Substance VLSPFTVKIDIKSKISVLGP registered an amyloid nucleation score of 4.11 ± 0.15.
With FHFWEMFTQEAAPIWRWF the figure was -0.139 ± 0.75; with GSVVYVIQGDMKRVLGFNGM, 5.42 ± 0.096.
The substance ICWLC registered an amyloid nucleation score of 6.912 ± 0.055.
Regarding LRYFGL, the amyloid nucleation score result was “inactive”.
Substance VVIESYC returned an amyloid nucleation score of 0.593 ± 0.36.
Take GVGWVDGWSGSCFHWTGWCT: the amyloid nucleation score was found to be 3.46 ± 0.078.
Next, ADDYCQPGKIGVNNGPHRKR: -0.657 ± 1.7.
With SITLS the figure was -0.926 ± 1.8.
The substance KHDRHAKTTSLYRKPGKLRR gave an amyloid nucleation score of 0.4 ± 1.1.
Turning to YVSYDQTNSAAYYVRVRLRF, the amyloid nucleation score amounted to 0.947 ± 0.73.
In the case of ILIAKCSLPCYMKRGNAPCL, the amyloid nucleation score was 1.37 ± 0.59.
With VIVARQFISPSVYGDAMDHS the figure was 1.15 ± 0.97; with FEYRRNLKCVSFFWSVGINR, -0.436 ± 0.4; with RFEWLCGVFSGALPKGAWLK, -0.144 ± 0.37.
With LYHGVYPKFLYKLVVESSLS the figure was -1.79 ± 1.7.
With FGYNFRPHHCGCTRNLNSQM the figure was 0.115 ± 0.29; with SVSYRDCVVKILK, 4 ± 0.074; with VLMFIINSCKR, 7.028 ± 0.052.
On to FSSQYQMSAGVF, for which the amyloid nucleation score was -0.013 ± 0.56.
With SYFRREDCFVFKVITLFIMS the figure was -0.675 ± 0.46; with FFWRHLESGMGFHKACSHGG, 0.005 ± 1.7; with YSDWHI, -0.511 ± 0.91.
In turn, AFRRRGSVPRGRASPHIFVV registered an amyloid nucleation score of 7.948 ± 0.065.
Regarding SVIVMVCVGL, the amyloid nucleation score amounted to 1.78 ± 0.13.
Next, GAPEVPIDYGLEASRNCSKG: -0.61 ± 1.4.
For TYGRASRALGDFRQITRVAS, the amyloid nucleation score is -1.38 ± 1.7.
With KSITWSKGDFARSTLLVNIC the figure was 0.397 ± 0.43; with FVFKIWQSD, 0.116 ± 0.58.
Take RPRHIFDNSKVYNMGPYFYD: the amyloid nucleation score was 1.59 ± 0.56.
On to VESDKCQLGTLSIMYICFFL, for which the amyloid nucleation score entry was “inactive”.
Next, SLGGVGRTTHNILCEADSGA: 1.44 ± 0.38; LCLSCLWMGETRPRSNPVNL: 6.24 ± 0.068; NSIFLLSYLKLIFAVYA: “inactive”.
With QRRYRDTAGLNRNIRNICSK the figure was -0.257 ± 0.72; with FAPMILRPVLSQMAWWKDIA, -0.108 ± 0.52.
Regarding LNQRWCCFTISALR, the amyloid nucleation score was 7.702 ± 0.076.
With MKLRVDLFSYGRCLCEQ the figure was -0.021 ± 0.25.
THCFFYHLGKFYMSKITLAS returned an amyloid nucleation score of -1.48 ± 2.7.
Next, NESEFLFSKAHRMVVIP: “inactive”.
In the case of GSGSAPCCTIAFMMLFGTEG, the amyloid nucleation score was -0.057 ± 0.81.
Next, WWATWRLLCIDNTACWADRW: -0.177 ± 0.53; NHSNTCEWRSCRP: 0.551 ± 0.61.
In turn, ICKDKHAIV registered an amyloid nucleation score of -0.282 ± 0.37.
With SYKLVRTLNG the entry was “inactive”.
Next, CELRTD: “inactive”.
The substance AFRQVRKIVQAGTGGVQ registered an amyloid nucleation score of -0.324 ± 0.58.
Substance RWSQNMGSKSVRGTKFNLKL had an amyloid nucleation score of 0.846 ± 0.21.
As to VDCLGFLEHICGLGDIIKTK, the amyloid nucleation score was found to be 0.341 ± 0.25.
With LYTIRTYPSLLKCDSPLN the figure was -1.01 ± 0.78; with SSRCY, 0.104 ± 0.85.
With KGCCLCLISMSVTNRLVEPR the figure was 6.294 ± 0.059; with TRNVSVTAVMED, 0.938 ± 0.81; with KLILK, -0.378 ± 0.51.
The substance TSNSS showed an amyloid nucleation score of -1.07 ± 0.52.
With RIGGETGCV the figure was 0.216 ± 0.27.
The substance EFRSSVDWNAFMKLLVCTKH gave an amyloid nucleation score of 0.021 ± 0.93.
FMFDNYIGRSGSGGCSGDGR showed an amyloid nucleation score of -0.417 ± 1.2.
With SSVCGKL, the amyloid nucleation score was -0.211 ± 0.7.
AFNGVSNLEWL showed an amyloid nucleation score of -0.18 ± 1.7.
In turn, MRQWSGQG registered an amyloid nucleation score of 0.758 ± 1.
In the case of VVTDF, the amyloid nucleation score result is “inactive”.
Turning to ITFKLNMCPILWIPCVACSN, the amyloid nucleation score was 6.57 ± 0.047.
Next, SLLGPIGIIQTWIPTHLDLF: “inactive”; LYRRGTRPPG: -1.28 ± 2.4; VWACSPGDVAFMP: 0.762 ± 0.97.
Regarding NYQWIRIVIMYVLSMTASLS, the amyloid nucleation score entry is “inactive”.
Regarding DPNFITMACQIADECAYCCH, the amyloid nucleation score result was “inactive”.
For the substance LTSRNYESIY, the amyloid nucleation score was -0.159 ± 0.24.
With SNCVIVSQLKITDA the figure was -0.184 ± 0.44; with LGLDGCSSMLEEDFCR, 0.45 ± 0.52.
LFIDVSR had an amyloid nucleation score of -0.021 ± 1.6.
Substance VRRDQDRPFSTMRQGLRFGH came in with an amyloid nucleation score of 0.248 ± 0.31.
With SSSEGRWMGYGP the figure was -0.276 ± 0.53.
Next, RPLALRVQDSPKSFGQSP: 0.145 ± 0.7.
Turning to EALCHMWQYSGCP, the amyloid nucleation score amounted to 0.324 ± 0.66.
Turning to AGSNSFIFFLVRFFVRALGR, the amyloid nucleation score is -0.67 ± 0.34.
With VVRTH the entry was “inactive”; with VGEQPYFGVFTTRYVMARYA, 0.487 ± 0.71; with DNKFYHKVTDRRFLIPIFQI, -0.331 ± 0.37.
Next, LTPRRYIWTYLSWGDAGLEL: 1.02 ± 0.9; VAWLNCSTKVGL: -0.053 ± 1.3; HNELCFMFYSLGNCYGAGVG: 5.03 ± 0.095.
Next, HRIITCPFTSWNH: 0.816 ± 0.54.
Substance AGIKIGKEKGCHNYRFWWTV showed an amyloid nucleation score of 0.124 ± 0.5.
Substance AKLYMCSCINCTASHEITYF registered an amyloid nucleation score of 8.419 ± 0.045.
Next, WSLWARWSFRHRCQRMHLLL: 0.174 ± 0.4; ILYNLGTWFRLC: -0.496 ± 0.61.
RLCAINHPLCTFSQTMAWVH displayed an amyloid nucleation score of 0.272 ± 0.29.
The substance CLVVVISS had an amyloid nucleation score of -0.369 ± 0.57.
With KDNLYWKDLSVCLRRFVGLH the entry was “inactive”.
As to MACRSPEGLEYMKN, the amyloid nucleation score was 0.209 ± 0.46.
Substance LSMNICSLNSSRYKPP had an amyloid nucleation score of 2.79 ± 0.098.
Next, YSTRPKVPFVRKVFIIGL: 0.174 ± 0.43; FGMIFFLLTMALRDVCVRLR: 7.24 ± 0.084; EFGNVIRVCNLI: -0.289 ± 0.34.
Next, IFGFVWDPKTNYMTGLFASI: -0.231 ± 0.5; LRSRR: 1.41 ± 0.76.
Next, RFRNGLNLFRMSNMFSNLKH: -0.129 ± 1.1.
In turn, CLGHLLLTESIPCSFCSYWM came in with an amyloid nucleation score of 4.55 ± 0.075.
Next, LIFNQLWWRKSMCLQVRPGQ: -1.25 ± 0.92.
